Where two headings read alike, the source gives them in different places. Numbered stars: 1 amine (or outer) side, 2 acyl side, 3 side chain; on linkers, the order of the positions; unused ones are H or OH. Square brackets hold non-standard residues; d marks the D form. Primed or numbered codes have the meaning given here. Side chains are listed from the residue outwards. Ends that are not written are not given here. * marks the point of attachment. C18″ = C18 fatty acid moiety (of 2OEG-γGlu-C18, K*); γGlu = O=C(O)[C@H](CCC(=O)[*:2])N[*:1]; αMeR = C[C@](N)(CCCNC(=N)N)C(=O)O; AEEA = NCCOCCOCC(=O)O; Aib = CC(C)(N)C(=O)O
T1: human glucose-dependent insulinotropic polypeptide receptor (GIPR), expressed on CHO-K1 cells (human, UniProt P48546 22-466)
T1 sequence (looked up): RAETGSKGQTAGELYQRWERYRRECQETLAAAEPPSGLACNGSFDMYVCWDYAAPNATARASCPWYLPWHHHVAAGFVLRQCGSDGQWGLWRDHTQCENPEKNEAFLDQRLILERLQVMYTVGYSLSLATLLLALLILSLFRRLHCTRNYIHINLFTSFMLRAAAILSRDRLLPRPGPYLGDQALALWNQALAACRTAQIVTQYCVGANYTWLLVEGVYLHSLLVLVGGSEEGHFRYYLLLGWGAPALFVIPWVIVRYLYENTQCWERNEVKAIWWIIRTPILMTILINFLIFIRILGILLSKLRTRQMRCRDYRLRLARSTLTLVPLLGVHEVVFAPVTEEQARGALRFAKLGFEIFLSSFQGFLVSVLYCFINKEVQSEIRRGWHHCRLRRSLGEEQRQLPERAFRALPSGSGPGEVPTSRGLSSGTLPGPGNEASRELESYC


What was measured:
Test in all cases: cell-based or functional assay
[1] = target: T1, human glucose-dependent insulinotropic …
[2] = target: T2, human glucagon receptor (GCGR), expressed on CHO-K1 cells (human, UniProt P47871 26-477)
T2 sequence (P47871 26-477): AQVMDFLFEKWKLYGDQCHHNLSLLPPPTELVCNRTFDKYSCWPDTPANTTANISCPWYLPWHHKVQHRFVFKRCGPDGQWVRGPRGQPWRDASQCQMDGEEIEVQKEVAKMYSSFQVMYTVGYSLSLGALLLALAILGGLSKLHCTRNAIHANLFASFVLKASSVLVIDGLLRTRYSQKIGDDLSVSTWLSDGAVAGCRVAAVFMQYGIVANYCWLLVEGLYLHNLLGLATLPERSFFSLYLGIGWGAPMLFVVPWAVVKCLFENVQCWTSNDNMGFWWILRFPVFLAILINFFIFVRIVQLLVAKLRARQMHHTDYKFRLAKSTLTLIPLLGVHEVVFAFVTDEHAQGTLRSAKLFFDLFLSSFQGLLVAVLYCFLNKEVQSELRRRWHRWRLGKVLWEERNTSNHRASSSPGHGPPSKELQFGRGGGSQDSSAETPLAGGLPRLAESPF

[3] = target: T3, human GLP-1 receptor (GLP-1R), expressed on CHO-K1 cells (human, UniProt P43220 24-463)
[4] = target: T1, human glucose-dependent insulinotropic …; remark: listed apart in the source
[5] = target: T2, human glucagon receptor (GCGR), …; remark: listed apart in the source
[6] = target: T3, human GLP-1 receptor (GLP-1R), …; remark: listed apart in the source
[7] = target: T1, human glucose-dependent insulinotropic …; remark: listed apart in the source
[8] = target: T2, human glucagon receptor (GCGR), …; remark: listed apart in the source
[9] = target: T3, human GLP-1 receptor (GLP-1R), …; remark: listed apart in the source
[10] = target: T1, human glucose-dependent insulinotropic …; remark: listed apart in the source
[11] = target: T2, human glucagon receptor (GCGR), …; remark: listed apart in the source
[12] = target: T3, human GLP-1 receptor (GLP-1R), …; remark: listed apart in the source

Row | Binder | Ratio vs. GLP-1R [1] | Ratio vs. GLP-1R [2] | Ratio vs. GLP-1R [3] | Relative % to non-lipidated peptide [4] | Relative % to non-lipidated peptide [5] | Relative % to non-lipidated peptide [6] | Ratio vs. GLP-1R [7] | Relative % to native ligand [7] | Ratio vs. GLP-1R [8] | Relative % to native ligand [8] | Ratio vs. GLP-1R [9] | Relative % to native ligand [9] | Relative % to native ligand [10] | Relative % to native ligand [11] | Relative % to native ligand [12]
1 | Y[Aib]QGTFTSDYSK([AEEA-AEEA-γGlu-C18″])LLDYMMQRDFVQWLLEGGPSSGAPPPS-NH2 [Peptide No. 5-3D] | 880 | 9 | 100 | 15% | 1% | 19% | 105 | 230% | 26 | 56% | 100 | 219% | 1050% | 11% | 119%
2 | Y[Aib]QGTFTSDYSK([AEEA-AEEA-γGlu-C18″])LLDYMMQQDFVQWLLEGGPSSGAPPPS-NH2 [SEQ ID NO. 100] |  |  |  |  |  |  | 103 | 55% | 56 | 30% | 100 | 54% |  |  | 
3 | Y[Aib]QGTFTSDYSK([AEEA-AEEA-γGlu-C18″])LLDYMMQ[αMeR]DFVQWLLEGGPSSGAPPPS-NH2 [SEQ ID NO. 101] |  |  |  |  |  |  | 65 | 472% | 12 | 89% | 100 | 722% |  |  | 

From patent US20250296960A1, “PEPTIDE COMPOSITIONS AND METHODS OF USE THEREOF” (priority 2022, published 2025)
